Series [1] has as its system HEK cells stably expressing human β-klotho. In words: HEK β-Klotho pERK 1/2 assay. Format: cell-based. The note with it: for Efficacy (%): % of His6-tagged FGF21 maximal activity; for activity in HEK β-klotho stable cells (specificity experiment): same dilutions as in parental HEK cells. The procedure:
FGF21 induces ERK phosphorylation in the presence of β-klotho. Accordingly, the present HEK-β-klotho assay system was constructed to examine the functional activity of the FGF21-SABA fusions in vitro. Specifically, in vitro activity, potency (EC50) and efficacy (as a percentage of maximal activity observed from an FGF21 molecule that is not fused to a SABA), were determined for the SABA1-FGF21v1 (SEQ ID NO: 132) fusion protein, as measured in the HEK β-Klotho expressing stable cell pERK 1/2 assay using the non-fused His-tagged FGF21 (“FGFv1”; SEQ ID NO: 125) as a comparator.
A HEK cell line stably expressing human β-klotho was constructed. The human β-klotho construct encoded the full length protein under the control of a CMV promoter with a C-terminal FLAG tag. HEK 293 cells were transfected with the linearized cDNA using Lipofectamine 2000 (Invitrogen catalog #11668027) following the manufactures protocol using standard techniques. Positive clones were isolated after 14 days of selection in 600 ug/ml (Invitrogen catalog #10131) of geneticin in Dulbecco's Modified Eagle Medium with high glucose containing L-Glutamine, Hepes (Invitrogen catalog #12430054) and 10% FBS (HyClone catalog # SH30071). Positive stable clones were further characterized by Western Blot analysis and p-ERK activation by AlphaScreen (Perkin Elmer catalog # TGRES50K) analysis.
HEK cells stably expressing human β-klotho were plated at 20,000 cells/well in 96 well tissue culture plates in DMEM high glucose media (Gibco) containing 10% (v/v) FBS (Hyclone) and 600 μg/ml G418 (Gibco). The following day, the media was removed and replaced with DMEM high glucose media without serum and the cells were incubated overnight. The morning of the third day the serum free media was removed and the cells were incubated for a total of seven minutes with dilutions of the proteins made in PBS containing 3% (w/v) fatty acid free human serum albumin. Dilutions were tested in triplicate, one well on each of three plates. At the end of the seven minute incubation, the protein dilutions were removed and 100 μl of 1x AlphaScreen lysis buffer (Perkin-Elmer) was added per well and allowed to incubate with shaking for approximately 10-15 minutes. The plates containing the cellular lysates were frozen at −80° C. for at least 30 minutes or until ready to assay. Four μl from each well of thawed cell lysate was analyzed for pERK 1/2 using the Surefire AlphaScreen pERK 1/2 kit (Perkin Elmer) using 384 well white Proxiplates (Perkin Elmer) following the manufacturer's directions. Plates were incubated at room temperature for two hours in the dark and then read on an Envision 2103 Multiplate reader (Perkin Elmer). Data were analyzed using Graph Pad Prism software using a non-linear regression analysis.

The test system of series [2] is parental HEK cells, which do not express β-klotho. In words: pERK 1/2 specificity assay in parental HEK cells. Format: cell-based, human. The text has this: FGF1 was used as a positive control in those experiments.
In series [3] the test system is diabetic ob/ob mice. In words: Plasma glucose lowering in diabetic ob/ob mice, 7 days daily s.c. The note with it: day 7; for lowering of plasma glucose compared to the PBS vehicle control: SABA1-FGF21v1 1.0 mg/kg, His-tagged FGF21 0.3 mg/kg s.c. daily; for magnitude of glucose lowering: […] hours post dose. Format: in vivo, mouse. The procedure: (§1) Thus, monitoring plasma glucose levels in diabetic ob/ob mice represents one way that the functional activity of the FGF21-SABA fusion proteins can be assessed. Beginning at 8 weeks of age, diabetic ob/ob mice received daily subcutaneous doses for 7 days (n=8 per group). All protocols were approved by the BMS ACUC committee. Fed glucose levels were examined both 24 hr and 3 hr post-dose on day 7 beginning at 8:00 AM. His-tagged FGF21 and SABA1-FGF21v1 were formulated in PBS and dosed at 0.3 mg/kg, and 1.0 mg/kg. respectively.
(§2) To evaluate the efficacy of SABA1-FGF21v1 bound to human albumin, the fusion protein (1 mg/kg) was incubated with a molar excess of human serum albumin (6 mg/kg) and the mixture was injected in an additional group (q.d. s.c. for 7 days). Human serum albumin (6 mg/kg) was used as an additional control group.

Series [4] can be described thus: Plasma exposure in the ob/ob mouse efficacy study. Particulars: His6-tagged FGF21 0.3 mg/kg, SABA1-FGF21v1 1 mg/kg, without HSA; for Plasma Concentration: 3 hours post dose; for Plasma Concentration (ng/ml): […] hours post dose. The class given is in vivo, ob/ob mice. On the procedure: as §1, §2
The exposure of SABA1-FGF21v1 is greater in the presence of human serum albumin than in its absence.
(§3) Various in vivo studies were conducted in mice and monkeys to characterize the pharmacokinetics of His-tagged FGF21 and SABA1-FGF21v1. An ELISA-based ligand binding assay was used to measure the His-tagged FGF21 and SABA1-FGF21v1 in all mouse and monkey plasma samples.

The nature of series [5]: Pharmacokinetics of His-tagged FGF21 and SABA1-FGF21v1 in mice. Format: in vivo, CD-1 mice; ob/ob mice. The note with it: for steady-state volume of distribution (Vss) / terminal half-life (T1/2) / total body plasma clearance (CLTp): CD-1 mice, intravenous, His-tagged FGF21 1 mg/kg, SABA1-FGF21v1 1.6 mg/kg. On the procedure:
as §3
(§4) Following subcutaneous administration, His-tagged FGF21 was well absorbed.
(§5) Following subcutaneous administration, SABA1-FGF21v1 was well absorbed.
SABA1-FGF21v1 was also administered to ob/ob mice at 1 mg/kg subcutaneously after pre-mix with human serum albumin (6 mg/kg).

Series [6] can be described thus: Pharmacokinetics of His-tagged FGF21 and SABA-FGF21 fusions in monkeys. The class given is in vivo, cynomolgus monkeys. The note with it: for CL (total body plasma clearance, CLTp) / T½ (terminal half-life) / Vdss (steady-state volume of distribution, Vss) / absolute subcutaneous bioavailability / apparent subcutaneous terminal half-life (T1/2): monkeys; for CL (total body plasma clearance, CLTp) / T½ (terminal half-life) / Vdss (steady-state volume of distribution, Vss): intravenous, His-tagged FGF21 0.5 mg/kg, SABA1-FGF21v1 0.08 mg/kg. On the procedure: as §3, §4, §5

[7] abbreviates: cyno, SC, 0.08 mg/kg, N = 3, mean ± SD.

The term EC50 denotes the concentration that produces a half-maximal response. As a reminder, the Vss is a proportionality between amount in the body and measured concentration, not a real space. Lower therefore signals confinement near the circulation. What is called Cmax is the peak of the concentration-time curve. As a reminder, the Tmax is the time from dosing to the highest level.

B1: His-tagged FGF21: non-fused His-tagged FGF21 (“FGFv1”; SEQ ID NO: 125) used as a comparator (protein)
chain: MHHHHHHPIPDSSPLLQFGGQVRQRYLYTDDAQQTEAHLEIREDGTVGGAADQSPESLLQLKALKPGVIQILGVKTSRFLCQRPDGALYGSLHFDPEACSFRELLLEDGYNVYQSEAHGLPLHLPGNKSPHRDPAPRGPARFLPLPGLPPALPEPPGILAPQPPDVGSSDPLSMVGPSQGRSPSYAS
modifications: His6 tag
With B1, in series [1] (mean ± std. dev., N ≧4), the “Efficacy (%)” value was 100%. This molecule returned an EC50 in series [1] (pERK 1/2, in PBS with 3% human serum albumin, mean ± std. dev., N ≧4) of 7 ± 4 nM. In addition, the “activity in HEK β-klotho stable cells (specificity experiment)” value in series [1] was “showed activity”. Also, the “stimulation of pERK 1/2 levels in parental HEK cells” value in series [2] is recorded as “neither His-tagged FGF21 nor SABA1-FGF21v1 stimulated pERK 1/2 levels”. The “lowering of plasma glucose compared to the PBS vehicle control” value in series [3] (3 hours post dose) is given as “comparable”. In series [4], the “Plasma Concentration” value was 99 ng/mL and the “Plasma Concentration (ng/ml)” value was “<LLOQ”. In series [5], the “steady-state volume of distribution (Vss)” value is recorded as 0.27 L/kg, the “terminal half-life (T1/2)” value was 0.5 h and the “total body plasma clearance (CLTp)” value was 12 mL/min/kg. Moreover, in series [5] (mice, subcutaneous), the absolute subcutaneous bioavailability is on record as approximately 100% and the “apparent subcutaneous terminal half-life (T1/2)” value is given as 0.6 h. In addition, in series [6], the “CL (total body plasma clearance, CLTp)” value amounted to 6.4 mL/min/kg; the “T½ (terminal half-life)” value stood at 1.9 h; the “Vdss (steady-state volume of distribution, Vss)” value is reported as 1 L/kg; the absolute subcutaneous bioavailability is 65%. For the same molecule, the “apparent subcutaneous terminal half-life (T1/2)” value in series [6] turned out to be 4.3 h.

B2: SABA1-FGF21v1: SABA1-FGF21 fusion, SEQ ID NO: 132; 293 aa; DNA SEQ ID NO: 184 (protein)
chain: MGVSDVPRDLEVVAATPTSLLISWHSYYEQNSYYRITYGETGGNSPVQEFTVPYSQTTATISGLKPGVDYTITVYAVYGSKYYYPISINYRTEIEKPSQGSGSGSGSGSGSGSPIPDSSPLLQFGGQVRQRYLYTDDAQQTEAHLEIREDGTVGGAADQSPESLLQLKALKPGVIQILGVKTSRFLCQRPDGALYGSLHFDPEACSFRELLLEDGYNVYQSEAHGLPLHLPGNKSPHRDPAPRGPARFLPLPGLPPALPEPPGILAPQPPDVGSSDPLSMVGPSQGRSPSYAS
Turning to B2, in series [1], the “right shift of potency (EC50) relative to the His-tagged FGF21” value is “approximately 15 fold” and the “activity in HEK β-klotho stable cells (specificity experiment)” value is given as “showed activity”. Besides, the “Efficacy (%)” value in series [1] (mean ± std. dev., N ≧4) is reported as 62%. The “Efficacy (%)” value in series [1] (mean ± std. dev., N ≧4, listed as SABAl-FGF21v1) was found to be 62 ± 9%. In addition, the “stimulation of pERK 1/2 levels in parental HEK cells” value in series [2] is “neither His-tagged FGF21 nor SABA1-FGF21v1 stimulated pERK 1/2 levels”. Also, the “lowering of plasma glucose compared to the HSA control” value in series [3] (3 hours post dose, 1 mg/kg with human serum albumin 6 mg/kg, q.d. s.c.) came to 46%. Further, the “lowering of plasma glucose compared to the PBS vehicle control” value in series [3] (3 hours post dose) is 29%. Further, in series [3] (1.0 mg/kg s.c. daily, without HSA), the “magnitude of glucose lowering” value is 7%. Further, the “magnitude of glucose lowering” value in series [3] (1 mg/kg with HSA 6 mg/kg) is 41%. Also, in series [4], the “Plasma Concentration” value stood at 1370 ng/mL and the “Plasma Concentration (ng/ml)” value is “<LLOQ”. In addition, in series [5], the “steady-state volume of distribution (Vss)” value was determined as 0.12 L/kg, the “terminal half-life (T1/2)” value came out at 1.9 h and the “total body plasma clearance (CLTp)” value is 2.9 mL/min/kg. Besides, the “apparent subcutaneous terminal half-life (T1/2)” value in series [5] (mice, subcutaneous) stood at 1.9 h. Further, the “apparent subcutaneous terminal half-life (T1/2)” value in series [5] (ob/ob mice, 1 mg/kg subcutaneously after pre-mix with human serum albumin (6 mg/kg)) came out at 9 h. For the same molecule, in series [6] (cyno, IV, 0.08 mg/kg, N = 2), the “AUCtot” value came to 3.621 µM·h, the “CLTp” value is 0.0118 mL/min/kg, the “T½” value came out at 97 h and the “Vss” value is 0.076 L/kg. In series [6] (cyno, SC, 0.08 mg/kg), the “F (%)” value amounted to 68%. Also, in series [6] (setting [7]), the “AUCtot” value turned out to be 2.454 ± 0.779 µM·h, the highest concentration (Cmax) was found to be 22.4 ± 10.8 nM and the time to peak (Tmax) was 13 ± 9 h. Further, in series [6], the “CL (total body plasma clearance, CLTp)” value worked out at 0.012 mL/min/kg; the “T½ (terminal half-life)” value came out at 97 h; the “Vdss (steady-state volume of distribution, Vss)” value was 0.08 L/kg; the absolute subcutaneous bioavailability amounted to 68%. Also, the “apparent subcutaneous terminal half-life (T1/2)” value in series [6] was 67 h.
